Laboratory results from the Human Domainome abundance scans (Beltran et al. 2025).
± gives the uncertainty stated by the source.

B1: Death-inducer obliterator 1, residues 263 to 321; numbered along this chain, Q9BTC0 (parent)
chain: GYDPNALYCICRQPHNNRFMICCDRCEEWFHGDCVGISEARGRLLERNGEDYICPNCTI

Variants of: B1
Assay: abundance fitness (aPCA) (normalised: wild type 0, dead -1); higher = more abundant; growth selection in yeast, the domain comes from the species named
Settings: Homo sapiens

First: GYDPNALYCICRQPHNNRFMICKDRCEEWFHGDCVGISEARGRLLERNGEDYICPNCTI [C23K]
Second: GYDPNALYCICRQPHNNRFMICHDRCEEWFHGDCVGISEARGRLLERNGEDYICPNCTI [C23H]
The abundance fitness of the first is higher: -0.408 ± 0.099 for the first, -1 ± 0.24 for the second.

GYDPNALYCICRQPHNNRFMICWDRCEEWFHGDCVGISEARGRLLERNGEDYICPNCTI [C23W] and GYDPNALYCICRQPHNNRFMICLDRCEEWFHGDCVGISEARGRLLERNGEDYICPNCTI [C23L] are within error of each other in abundance fitness: -0.942 ± 0.27 for the first, -1.03 ± 0.1 for the second.

Compared with GYDPNALYCICRQPHNNRFMICMDRCEEWFHGDCVGISEARGRLLERNGEDYICPNCTI [C23M], GYDPNALYCICRQPHNNRFMICGDRCEEWFHGDCVGISEARGRLLERNGEDYICPNCTI [C23G] is higher in abundance fitness: -1.26 ± 0.28 for the first, -0.864 ± 0.1 for the second.

Going from GYDPNALYCICRQPHNNRFMICPDRCEEWFHGDCVGISEARGRLLERNGEDYICPNCTI [C23P] to GYDPNALYCICRQPHNNRFMICTDRCEEWFHGDCVGISEARGRLLERNGEDYICPNCTI [C23T], the abundance fitness falls from -0.296 ± 0.11 to -0.918 ± 0.14.

GYDPNALYCICRQPHNNRFMICDDRCEEWFHGDCVGISEARGRLLERNGEDYICPNCTI [C23D] and GYDPNALYCICRQPHNNRFMICQDRCEEWFHGDCVGISEARGRLLERNGEDYICPNCTI [C23Q] are within error of each other in abundance fitness: -0.532 ± 0.22 for the first, -0.821 ± 0.13 for the second.

Compared with GYDPNALYCICRQPHNNRFMICEDRCEEWFHGDCVGISEARGRLLERNGEDYICPNCTI [C23E], GYDPNALYCICRQPHNNRFMISCDRCEEWFHGDCVGISEARGRLLERNGEDYICPNCTI [C22S] is higher in abundance fitness: -0.966 ± 0.14 for the first, 0.023 ± 0.056 for the second.

First: GYDPNALYCICRQPHNNRFMIHCDRCEEWFHGDCVGISEARGRLLERNGEDYICPNCTI [C22H]
Second: GYDPNALYCICRQPHNNRFMIVCDRCEEWFHGDCVGISEARGRLLERNGEDYICPNCTI [C22V]
The abundance fitness of the first is lower: 0.056 ± 0.12 for the first, 0.269 ± 0.066 for the second.

GYDPNALYCICRQPHNNRFMIQCDRCEEWFHGDCVGISEARGRLLERNGEDYICPNCTI [C22Q] and GYDPNALYCICRQPHNNRFMIACDRCEEWFHGDCVGISEARGRLLERNGEDYICPNCTI [C22A] are within error of each other in abundance fitness: 0.075 ± 0.064 for the first, 0.116 ± 0.09 for the second.

GYDPNALYCICRQPHNNRFMIGCDRCEEWFHGDCVGISEARGRLLERNGEDYICPNCTI [C22G] and GYDPNALYCICRQPHNNRFMITCDRCEEWFHGDCVGISEARGRLLERNGEDYICPNCTI [C22T] are within error of each other in abundance fitness: 0.073 ± 0.073 for the first, 0.185 ± 0.062 for the second.

GYDPNALYCICRQPHNNRFMIICDRCEEWFHGDCVGISEARGRLLERNGEDYICPNCTI [C22I] and GYDPNALYCICRQPHNNRFMIECDRCEEWFHGDCVGISEARGRLLERNGEDYICPNCTI [C22E] are within error of each other in abundance fitness: 0.07 ± 0.063 for the first, 0.023 ± 0.096 for the second.

GYDPNALYCICRQPHNNRFMIYCDRCEEWFHGDCVGISEARGRLLERNGEDYICPNCTI [C22Y] and GYDPNALYCICRQPHNNRFMIPCDRCEEWFHGDCVGISEARGRLLERNGEDYICPNCTI [C22P] are within error of each other in abundance fitness: 0.12 ± 0.14 for the first, 0.02 ± 0.069 for the second.

GYDPNALYCICRQPHNNRFMIRCDRCEEWFHGDCVGISEARGRLLERNGEDYICPNCTI [C22R] and GYDPNALYCICRQPHNNRFMIKCDRCEEWFHGDCVGISEARGRLLERNGEDYICPNCTI [C22K] are within error of each other in abundance fitness: 0.11 ± 0.078 for the first, 0.058 ± 0.055 for the second.

GYDPNALYCICRQPHNNRFMIWCDRCEEWFHGDCVGISEARGRLLERNGEDYICPNCTI [C22W] and GYDPNALYCICRQPHNNRFMINCDRCEEWFHGDCVGISEARGRLLERNGEDYICPNCTI [C22N] are within error of each other in abundance fitness: 0.08 ± 0.074 for the first, 0.029 ± 0.18 for the second.

GYDPNALYCICRQPHNNRFMIFCDRCEEWFHGDCVGISEARGRLLERNGEDYICPNCTI [C22F] and GYDPNALYCICRQPHNNRFMIMCDRCEEWFHGDCVGISEARGRLLERNGEDYICPNCTI [C22M] are within error of each other in abundance fitness: 0.137 ± 0.12 for the first, 0.102 ± 0.068 for the second.

GYDPNALYCICRQPHNNRFMICCNRCEEWFHGDCVGISEARGRLLERNGEDYICPNCTI [D24N] and GYDPNALYCICRQPHNNRFMICCGRCEEWFHGDCVGISEARGRLLERNGEDYICPNCTI [D24G] are within error of each other in abundance fitness: 0.196 ± 0.056 for the first, 0.166 ± 0.051 for the second.

Going from GYDPNALYCICRQPHNNRFMICCPRCEEWFHGDCVGISEARGRLLERNGEDYICPNCTI [D24P] to GYDPNALYCICRQPHNNRFMICCWRCEEWFHGDCVGISEARGRLLERNGEDYICPNCTI [D24W], the abundance fitness falls from 0.082 ± 0.064 to -0.227 ± 0.085.

Going from GYDPNALYCICRQPHNNRFMICCVRCEEWFHGDCVGISEARGRLLERNGEDYICPNCTI [D24V] to GYDPNALYCICRQPHNNRFMICCTRCEEWFHGDCVGISEARGRLLERNGEDYICPNCTI [D24T], the abundance fitness falls from 0.258 ± 0.074 to -0.032 ± 0.076.

Going from GYDPNALYCICRQPHNNRFMICCCRCEEWFHGDCVGISEARGRLLERNGEDYICPNCTI [D24C] to GYDPNALYCICRQPHNNRFMICCSRCEEWFHGDCVGISEARGRLLERNGEDYICPNCTI [D24S], the abundance fitness falls from 0.048 ± 0.06 to -0.092 ± 0.068.

Compared with GYDPNALYCICRQPHNNRFMICCYRCEEWFHGDCVGISEARGRLLERNGEDYICPNCTI [D24Y], GYDPNALYCICRQPHNNRFMICCMRCEEWFHGDCVGISEARGRLLERNGEDYICPNCTI [D24M] is higher in abundance fitness: -0.073 ± 0.077 for the first, 0.073 ± 0.068 for the second.

GYDPNALYCICRQPHNNRFMICCARCEEWFHGDCVGISEARGRLLERNGEDYICPNCTI [D24A] and GYDPNALYCICRQPHNNRFMICCKRCEEWFHGDCVGISEARGRLLERNGEDYICPNCTI [D24K] are within error of each other in abundance fitness: 0.139 ± 0.054 for the first, 0.192 ± 0.062 for the second.

Going from GYDPNALYCICRQPHNNRFMICCLRCEEWFHGDCVGISEARGRLLERNGEDYICPNCTI [D24L] to GYDPNALYCICRQPHNNRFMICCERCEEWFHGDCVGISEARGRLLERNGEDYICPNCTI [D24E], the abundance fitness rises from -0.176 ± 0.059 to 0.026 ± 0.11.

First: GYDPNALYCICRQPHNNRFMICCIRCEEWFHGDCVGISEARGRLLERNGEDYICPNCTI [D24I]
Second: GYDPNALYCICRQPHNNRFMICCRRCEEWFHGDCVGISEARGRLLERNGEDYICPNCTI [D24R]
The abundance fitness of the first is lower: -0.124 ± 0.12 for the first, 0.138 ± 0.056 for the second.

Work on GYDPNALYCICRQPHNNRFYICCDRCEEWFHGDCVGISEARGRLLERNGEDYICPNCTI [M20Y] yielded an abundance fitness of -0.304 ± 0.18.
